The results in this text go back to the Immune Epitope Database (IEDB).

Common to all, as to test: IEDB peptide-MHC binding, purified MHC/competitive/radioactivity; ≥ and ≤ were set here for values at or beyond the usual limits of such assays
Settings in all cases: source organism: Homo sapiens

In test [1] the target is HLA-A*02:01.
Test [2] addresses HLA-A*24:02.
Test [3] concerns the target HLA-B*08:01.
The target in test [4] is HLA-A*03:01.
Test [5] concerns the target HLA-A*11:01.
Test [6] has as its target HLA-B*07:02.
The target in test [7] is HLA-A*01:01.
For test [8], the target named is HLA-B*35:01.
In test [9] the target is HLA-B*51:01.
Test [10] addresses HLA-B*18:01.

As for ALARGAGTVPL, the IC50 in test [1] is 29 nM.

With ALGDLFQSI, the 50% inhibitory concentration (IC50) in test [1] stood at 76 nM.

Take ALTAVAEEV: the IC50 in test [1] stood at 1310 nM.

As to ALWGPDPAAA, the IC50 in test [1] is 1010 nM.

As for ALWGPDPAAAF, the IC50 in test [2] was determined as 15100 nM.

Take ALWMRLLPL: the IC50 in test [3] was 107 nM.

With ALWMRLLPLL, the values for the IC50 in [2] and in test [3] were 6180 nM and 33 nM, respectively.

With ALYLVCGER, the figures for the IC50 in [4] and in test [5] were 2790 nM and 28300 nM, respectively.

APVIKARMM: the IC50 in test [6] is 18300 nM.

For AVAANIVLTV, the IC50 in test [1] came to 575 nM.

On to ELAEYLYNI, for which, in test [1], the IC50 was determined as 637 nM.

For the sequence FIQVYEVERA, the IC50 in [1] turned out to be 7020 nM.

Turning to FLFAVGFYL, in test [1], the IC50 was 1.1 nM.

Consider FLIVLSVAL, for which the IC50 in test [1] was determined as 26 nM.

Consider FLLSLFSLWL, for which, in test [1], the IC50 was 16 nM.

On to FLQDVMNIL, for which the IC50 in test [1] was 70 nM.

Consider FLWSVFMLI, for which the IC50 in test [1] was 26 nM.

As to FLWSVFWLI, in test [1], the IC50 was 55 nM.

Regarding FMTSSWWRAPL, in test [1], the IC50 stood at 84 nM.

FYTPKTRRE: the IC50 in test [3] stood at 13000 nM.

Consider GERGFFYT, for which the IC50 in test [3] amounted to 1380 nM.

In the case of GLLQVHHSCPL, the IC50 in [1] worked out at 5.8 nM.

With GSHLVEALY, in test [7], the IC50 amounted to 30300 nM.

For GVFIQVYEV, the half-maximal inhibitory concentration (IC50) in [1] was found to be 460 nM.

Regarding HIAGSLAVV, the IC50 in test [1] came to 216 nM.

With HLASEKVYAI, in test [1], the concentration for half-maximal inhibition (IC50) turned out to be 4060 nM.

HLCGSHLVEA: in test [1], the IC50 turned out to be 7540 nM.

Consider HLSYHRLLPL, for which the IC50 in [1] came out at 4260 nM.

As for HPRYFNQLST, in test [6], the IC50 was found to be 1250 nM.

Regarding ILAVDGVLSV, in test [1], the IC50 worked out at 2.2 nM.

As for ILDKKVEKV, in test [1], the IC50 worked out at 11200 nM.

Take ILKDFSILL: the half-inhibitory concentration (IC50) in test [1] came to 39 nM.

As to ILMHCQTTL, the IC50 in [1] worked out at 478 nM.

ILVLASTITI: the IC50 in test [1] was determined as 675 nM.

IPSDLERRIL: in [6], the IC50 turned out to be 3860 nM.

Consider IQATVMIIV, for which the IC50 in test [1] stood at 9040 nM.

Take KLANIQCLCL: in test [1], the IC50 came out at 97 nM.

On to KLQVFLIVL, for which the IC50 in [1] came out at 1370 nM.

Take KMYAFTLES: the IC50 in [1] amounted to 880 nM.

Regarding KVLHELFGMDI, the IC50 in test [1] worked out at 11 nM.

For LASEKVYAI, in [1], the half-inhibitory concentration (IC50) came out at 6930 nM.

In the case of LIFDLGGGT, the IC50 in test [1] stood at 5420 nM.

Regarding LLDVAPLSL, the half-maximal inhibitory concentration (IC50) in test [1] was found to be 51 nM.

LLGRFELIGI: the IC50 in test [1] was found to be 233 nM.

Regarding LLHVHHSCPL, the IC50 in [1] came to 7840 nM.

LLIDLTSFL: in test [1], the IC50 is 8.1 nM.

LLLLDVAPL: the half-maximal inhibitory concentration (IC50) in test [1] worked out at 10 nM.

For the sequence LLPPLLEHL, the IC50 in [1] is 444 nM.

As for LLQEYNWEL, in [1], the IC50 was found to be 35 nM.

Turning to LLQVHHSCPL, in [1], the IC50 was found to be 3090 nM.

On to LLSILCIWV, for which the IC50 in [1] turned out to be 734 nM.

As to LLSLFSLWL, the concentration for half-maximal inhibition (IC50) in test [1] stood at 152 nM.

As for LMFWSPSHSCA, the IC50 in [1] worked out at 143 nM.

Take LMGDKSENV: the IC50 in test [1] amounted to 7370 nM.

For the sequence LNIDLLWSV, the IC50 in [1] amounted to 684 nM.

Regarding LPLLALLAL, the IC50 in [6] turned out to be 610 nM; in [8], 12300 nM; in [9] it was 1160 nM.

LVCGERGFFY: the IC50 in [4] amounted to 27400 nM; in test [5], 27200 nM.

Take LVEALYLVC: in test [1], the IC50 came to 11800 nM.

Take LWMRLLPLL: the IC50 in [2] was determined as 545 nM.

For the sequence LYLVCGERGF, the IC50 in test [2] was 5260 nM.

Consider MVWESGCTV, for which the IC50 in [1] is 126 nM.

NLAQDLATV: in test [1], the IC50 turned out to be 67 nM.

As to NLLGRFELI, the 50% inhibitory concentration (IC50) in [1] is 764 nM.

In the case of NLLGRFELIGI, the IC50 in [1] came out at 1.8 nM.

For the sequence RFKMFPEVK, the IC50 in test [5] amounted to 18300 nM.

With RLGPVARTRV, in test [1], the IC50 amounted to 581 nM.

As for RLLPLLALL, the IC50 in [2] came to 10200 nM.

In the case of RLLPLWAALPL, in [1], the IC50 was determined as 5.4 nM.

For the sequence RLLYPDYQI, in test [1], the IC50 stood at 124 nM.

As to RLQREWHTL, the IC50 in [1] stood at 1230 nM.

Turning to RLRPLCCTA, in test [1], the IC50 was determined as 8230 nM.

With RMMEYGTTMV, in [1], the IC50 amounted to 709 nM.

In the case of SHLVEALYLV, in [1], the IC50 turned out to be 2150 nM.

For the sequence SISVLISAL, in [1], the IC50 was found to be 1560 nM.

Take SLASLLPHV: the IC50 in [1] turned out to be 9.1 nM.

Consider SLEEEIRFL, for which the IC50 in [1] was found to be 472 nM.

Regarding SLFEGVDFYT, in test [1], the IC50 was 51 nM.

For SLSPLQAEL, in test [1], the IC50 came out at 101 nM.

For the sequence SLTAISTTL, the IC50 in test [1] turned out to be 242 nM.

For the sequence SLTTISTTL, the IC50 in test [1] is 237 nM.

As to SLYHVYEVNL, the IC50 in test [1] worked out at 209 nM.

Turning to SMCRFSPLTL, the IC50 in [1] was 1150 nM.

For the sequence SMPQGTFPV, the IC50 in test [1] came out at 631 nM.

In the case of STVASRLGPV, in test [1], the IC50 was 25100 nM.

For the sequence STVASWLGPV, in test [1], the IC50 turned out to be 9230 nM.

For the sequence SVASLLPHV, in test [1], the IC50 was found to be 1760 nM.

On to TIADFWQMV, for which the IC50 in test [1] was 4690 nM.

As for TLSSRVCCRT, in test [1], the IC50 worked out at 2780 nM.

TMHSLTIQM: the IC50 in [1] is 104 nM.

In the case of TVASRLGPV, the IC50 in test [1] was determined as 7700 nM.

VAANIVLTV: the IC50 in test [1] amounted to 320 nM.

As to VCGERGFFYT, the IC50 in test [10] was found to be 626 nM.

In the case of VIVMLTPLV, the IC50 in [1] was 2120 nM.

Turning to VLHELFGMDI, in test [1], the IC50 is 287 nM.

On to VLNSVASLL, for which the IC50 in test [1] came to 1140 nM.

For VLVEGSTRI, the IC50 in test [1] came to 17200 nM.

As for VMNILLQYV, the IC50 in test [1] amounted to 2020 nM.

Regarding VMNILLQYVV, in test [1], the IC50 was 2310 nM.

Consider VVTGVLVYL, for which the IC50 in test [1] is 9 nM.

As for WLLPLWAAL, the IC50 in [1] is 4.2 nM.

Regarding WLLPLWAALPL, in [1], the IC50 came to 3.2 nM.

As to WMRLLPLLAL, in test [6], the IC50 amounted to 2360 nM.

With YIPSCTVVGM, the IC50 in test [1] turned out to be 9510 nM.

As to YLLLRVLNI, in test [1], the IC50 turned out to be 57 nM.

A word on the IC50: it is the concentration that inhibits the measured activity by half.
